Measured values: patent US20250368714A1, “TREATMENT OF CANCER” (Immutep S.A.S., priority 2022, published 2025)

Tests used:
[1] = Pharmacokinetics of s.c. IMP321 in metastatic renal cell cancer patients; type: in vivo, human; details: for at least 24 hours after s.c. injection; doses of more than 6 mg
[2] = Clinical safety and tolerability of IMP321 (efti)
[3] = test system: CD4+ and CD8+ T cells numbers and activation status, IFN-γ and CXCL10; assay: PD markers of T cell immune response in patients dosed with efti every 2 weeks; type: in vivo, human
[4] = human, in vivo
[5] = test system: HER2 negative hormone receptor-positive metastatic breast cancer patients; assay: AIPAC Phase IIb study: paclitaxel+IMP321 vs paclitaxel+placebo, overall survival; type: in vivo, human
Protocol: A multicentre, placebo-controlled, double-blind, 1:1 randomised Phase IIb study in female HER2 negative hormone receptor-positive metastatic breast cancer patients was conducted. The study comprised two stages: • stage 1 which was an open-label, safety run-in stage consisting of cohorts 1 and 2 to confirm the recommended Phase II dose (RPTD) of IMP321 in combination with paclitaxel; and • stage 2 which was a placebo-controlled, double-blind randomisation stage, paclitaxel+IMP321 at the RPTD compared to paclitaxel+placebo.
The chemo-immunotherapy phase consisted of 6 cycles of 4 weeks. Patients received weekly paclitaxel at Days 1, 8 and 15 with adjunctive treatment of study agent (IMP321) on Days 2 and 16 of each 4-week cycle. After completion of the 6-cycle chemo-immunotherapy phase, responding or stable patients received study agent (IMP321) every 4 weeks during the maintenance phase for an additional period of up to 12 injections.
The chemo-immunotherapy phase consisted of 6 cycles of 4 weeks. Patients received weekly paclitaxel at Days 1, 8 and 15 with adjunctive treatment of study agent (placebo) on Days 2 and 16 of each 4-week cycle.
After completion of the 6-cycle chemo-immunotherapy phase, responding or stable patients received study agent (placebo) every 4 weeks during the maintenance phase for an additional period of up to 12 injections.
In addition, multivariate analysis was done using backward selection (p>0.15) from the univariate cox model.

[6] = Nonclinical toxicity study; type: in vivo
[7] = test system: Blood cell subsets (CD4, CD8, PBMCs, monocytes) and Th1 biomarker (CXCL-10); assay: AIPAC immuno-monitoring of blood cell subsets, Th1 biomarker and absolute lymphocyte count; type: in vivo, human
Protocol: Immuno-monitoring was also conducted. Blood cell subsets (CD4, CD8, PBMCs, monocytes) and Th1 biomarker (CXCL-10) were measured centrally. Comparison was done using 2-sided Wilcoxon test.
(§1) On the other hand, pre-study levels of CD8+ T cells were not correlated with OS in either treatment arm. Efti increases secondary target cells (CD8+ T cells) in the peripheral blood, leading to improved OS.
Increase of ALC is linked to improved survival for patients treated with efti arm, but not for patients in the placebo arm (FIG. 9). […] As this increase is observed early, it could be used in the future as a potential early on study biomarker for treatment continuation.

[8] = Clinical pharmacokinetics of s.c. efti in cancer patients; type: in vivo, human; details: for Cavg24h: cancer patients
Protocol: as §1
Efti doses of 6 and 30 mg given clinically lead to plasma Cmax of ≥1 ng/ml in most patients, this concentration reflecting the minimum concentration for desired efti PD effects. However, systemic efti levels of >1 ng/ml and lasting for ≥24 h have been observed in about 90% of patients receiving efti 30 mg, compared to only 20% at 6 mg.

[9] = test system: primary and secondary immune cells; assay: PD effects in vitro and ex vivo: activation of immune cells, induction of cytokines; type: cell-based
[10] = 8 treatment emergent adverse events in 3 of 5 patients with Cmax >10 ng/ml
[11] = Overall population, paclitaxel+IMP321 30 mg vs paclitaxel+placebo, univariate analysis, p 0.197
[12] = Sub-group <5 years since diagnosis, multivariate analysis table, p 0.025
[13] = Sub-group <65 years, univariate analysis, p 0.017
[14] = Sub-group Luminal B, univariate analysis, p 0.049
[15] = Sub-group high (>3.65) NLR at baseline, multivariate analysis table, p 0.012
[16] = Sub-group low baseline monocytes (<0.25/nL), univariate analysis, p 0.008
[17] = Sub-group low baseline monocytes, multivariate analysis table, p 0.008
[18] = Sub-group no prior taxane therapy, multivariate analysis table, p 0.076
[19] = Sub-group no prior taxane therapy, univariate analysis, p 0.076

B1: IMP321: recombinant soluble human LAG-3Ig fusion protein, 160-kDa dimer: extracellular domain of hLAG-3 fused to human IgG1 Fc; APC activator (protein)
chain: LQPGAEVPVVWAQEGAPAQLPCSPTIPLQDLSLLRRAGVTWQHQPDSGPPAAAPGHPLAPGPHPAAPSSWGPRPRRYTVLSVGPGGLRSGRLPLQPRVQLDERGRQRGDFSLWLRPARRADAGEYRAAVHLRDRALSCRLRLRLGQASMTASPPGSLRASDWVILNCSFSRPDRPASVHWFRNRGQGRVPVRESPHHHLAESFLFLPQVSPMDSGPWGCILTYRDGFNVSIMYNLTVLGLEPPTPLTVYAGAGSRVGLPCRLPAGVGTRSFLTAKWTPPGGGPDLLVTGDNGDFTLRLEDVSQAQAGTYTCHIHLQEQQLNATVTLAIITVTPKSFGSPGSLGKLLCEVTPVSGQERFVWSSLDTPSQRSFSGPWLEAQEAQLLSQPWQCQLYQGERLLGAAVYFTELSSPG
modifications: left off: small tags and cut ends; a dimerising Fc or GST
blood concentration of IMP321 [1]: > 1 ng/mL
grade ≥3 adverse events related to efti ([2]; 5 patients with Cmax of >10 ng/ml at dose 1): no grade ≥3 adverse events related to efti
adverse reactions mild in severity [2, 10]: 62.5%
adverse reactions moderate in severity [2, 10]: 37.5%
dose limiting toxicity ([2]; observed to date): No dose limiting toxicity
proportion of patients with upregulation of at least one PD marker (1.4-fold increase compared to baseline) ([3]; 1 mg): about 50%
proportion of patients with upregulation of at least one PD marker (1.4-fold increase compared to baseline) ([3]; 30 mg): about 90%
safety and tolerability of dose [4]: safe and tolerable
safety of s.c. doses ([4]; sc): safe
Absolute gain in median OS [5, 11]: +2.9 months
Hazard Ratio [95% CI] (OS) [5, 11]: 0.88
Absolute gain in median OS [5, 12]: +4.8 months
Hazard Ratio [95% CI] (OS) [5, 12]: 0.62
Absolute gain in median OS [5, 13]: +7.5 months
Hazard Ratio [95% CI] (OS) [5, 13]: 0.66
Absolute gain in median OS [5, 14]: +4.2 months
Hazard Ratio [95% CI] (OS) [5, 14]: 0.67
Absolute gain in median OS [5, 15]: +6.9 months
Hazard Ratio [95% CI] (OS) [5, 15]: 0.61
Absolute gain in median OS [5, 16]: +19.6 months
Hazard Ratio [95% CI] (OS) [5, 16]: 0.44
Absolute gain in median OS [5, 17]: +19.6 months
Hazard Ratio [95% CI] (OS) [5, 17]: 0.44
Absolute gain in median OS [5, 18]: +4.8 months
Hazard Ratio [95% CI] (OS) [5, 18]: 0.74
Absolute gain in median OS [5, 19]: +4.8 months
Hazard Ratio [95% CI] (OS) [5, 19]: 0.74
improvement in median overall survival (OS) ([5]; young patients (<65 years), low baseline monocytes (<0.25/nL), or Luminal B, exploratory univariate analysis): significant and clinically meaningful improvement
NOAEL dose [6]: 15 mg/kg
On treatment fold-change of PBMCs ([7]; IMP321 group vs placebo 1.41, p=0.041): 2.00 fold
On treatment fold-change of T cells ([7]; IMP321 group vs placebo 1.48, p=0.086): 2.28 fold
On treatment fold-change of CXCL10 ([7]; IMP321 group vs placebo 1.56, p=0.06): 2.78 fold
On treatment fold-change of monocytes ([7]; IMP321 group vs placebo 2.29, p=0.025): 5.81 fold
absolute lymphocyte count increase ([7]; efti arm, early (after 4 weeks) and sustainable): ≥ 0.2 nL⁻¹
circulating CD8+ T cells ([7]; efti arm, fresh whole blood by FACS (n=75), samples 2 weeks after previous efti dose, not in placebo arm): sustainable, statistically significant increase
Post baseline CD8 T cells count (median) ([7]; patients with improved OS, IMP321 group vs placebo 223, p=0.005): 377 µL⁻¹
Post baseline CD4 T cells count (median) ([7]; patients with improved OS, IMP321 group vs placebo 736, p=0.038): 896 µL⁻¹
patients with systemic efti levels of >1 ng/ml lasting for ≥24 h ([8]; 6 mg): 20%
Cavg24h ([8]; 6 mg): 0.8 ng/mL
patients with systemic efti levels of >1 ng/ml lasting for ≥24 h ([8]; 30 mg): about 90%
Cavg24h ([8]; 30 mg s.c.): 3.3 ng/mL
plasma Cmax ([8]; doses of 6 and 30 mg, in most patients): ≥ 1 ng/mL
time until efti disappears from the bloodstream after injection ([8]; s.c. injection): 3 to 4 days
efti concentration at which desired PD effects start [9]: 1 to 10 ng/mL
